Measured values taken from the Human Domainome abundance scans (Beltran et al. 2025).
± gives the uncertainty stated by the source.

B1: Ankyrin-1, residues 1405 to 1484; numbered along this chain, P16157 (parent)
chain: MKMAVISEHLGLSWAELARELQFSVEDINRIRVENPNSLLEQSVALLNLWVIREGQNANMENLYTALQSIDRGEIVNMLE

Variants of: B1
Test: abundance fitness (aPCA) (normalised: wild type 0, dead -1); higher = more abundant; growth selection in yeast, the domain comes from the species named
Conditions: Homo sapiens

Variant	abundance fitness
MKMAVISEHLGLSWAELARELQFSVEDINRIRVENPNSLLSQSVALLNLWVIREGQNANMENLYTALQSIDRGEIVNMLE [E41S]	-0.005 ± 0.048
MKMAVISEHLGLSWAELARELQFSVEDINRIRVENPNSLLTQSVALLNLWVIREGQNANMENLYTALQSIDRGEIVNMLE [E41T]	-0.184 ± 0.072
MKMAVISEHLGLSWAELARELQFSVEDINRIRVENPNSLLRQSVALLNLWVIREGQNANMENLYTALQSIDRGEIVNMLE [E41R]	0.054 ± 0.053
MKMAVISEHLGLSWAELARELQFSVEDINRIRVENPNSLLVQSVALLNLWVIREGQNANMENLYTALQSIDRGEIVNMLE [E41V]	-0.467 ± 0.067
MKMAVISEHLGLSWAELARELQFSVEDINRIRVENPNSLLWQSVALLNLWVIREGQNANMENLYTALQSIDRGEIVNMLE [E41W]	-0.563 ± 0.1
MKMAVISEHLGLSWAELARELQFSVEDINRIRVENPNSLLYQSVALLNLWVIREGQNANMENLYTALQSIDRGEIVNMLE [E41Y]	-0.28 ± 0.096
MKMAVISEHLGLSWAELARELQFSVEDINRIRVENPNSLLEQSCALLNLWVIREGQNANMENLYTALQSIDRGEIVNMLE [V44C]	0.05 ± 0.062
MKMAVISEHLGLSWAELARELQFSVEDINRIRVENPNSLLEQSLALLNLWVIREGQNANMENLYTALQSIDRGEIVNMLE [V44L]	0.014 ± 0.051
MKMAVISEHLGLSWAELARELQFSVEDINRIRVENPNSLLEQSFALLNLWVIREGQNANMENLYTALQSIDRGEIVNMLE [V44F]	0.182 ± 0.086
MKMAVISEHLGLSWAELARELQFSVEDINRIRVENPNSLLEQSSALLNLWVIREGQNANMENLYTALQSIDRGEIVNMLE [V44S]	0.154 ± 0.045
MKMAVISEHLGLSWAELARELQFSVEDINRIRVENPNSLLEQSDALLNLWVIREGQNANMENLYTALQSIDRGEIVNMLE [V44D]	0.112 ± 0.095
MKMAVISEHLGLSWAELARELQFSVEDINRIRVENPNSLLEQSRALLNLWVIREGQNANMENLYTALQSIDRGEIVNMLE [V44R]	0.181 ± 0.051
MKMAVISEHLGLSWAELARELQFSVEDINRIRVENPNSLLEQSWALLNLWVIREGQNANMENLYTALQSIDRGEIVNMLE [V44W]	-0.021 ± 0.083
MKMAVISEHLGLSWAELARELQFSVEDINRIRVENPNSLLEQSGALLNLWVIREGQNANMENLYTALQSIDRGEIVNMLE [V44G]	0.046 ± 0.039
MKMAVISEHLGLSWAELARELQFSVEDINRIRVENPNSLLEQSHALLNLWVIREGQNANMENLYTALQSIDRGEIVNMLE [V44H]	0.275 ± 0.078
MKMAVISEHLGLSWAELARELQFSVEDINRIRVENPNSLLEQSPALLNLWVIREGQNANMENLYTALQSIDRGEIVNMLE [V44P]	-0.911 ± 0.25
MKMAVISEHLGLSWAELARELQFSVEDINRIRVENPNSLLEQSIALLNLWVIREGQNANMENLYTALQSIDRGEIVNMLE [V44I]	-0.217 ± 0.12

Variant	abundance fitness
MKMAVISEHLGLSWAELARELQFSVEDINRIRVENPNSLLEQSTALLNLWVIREGQNANMENLYTALQSIDRGEIVNMLE [V44T]	0.161 ± 0.081
MKMAVISEHLGLSWAELARELQFSVEDINRIRVENPNSLLEQSYALLNLWVIREGQNANMENLYTALQSIDRGEIVNMLE [V44Y]	0.03 ± 0.09
MKMAVISEHLGLSWAELARELQFSVEDINRIRVENPNSLLEQSNALLNLWVIREGQNANMENLYTALQSIDRGEIVNMLE [V44N]	0.296 ± 0.084
MKMAVISEHLGLSWAELARELQFSVEDINRIRVENPNSLLEQSEALLNLWVIREGQNANMENLYTALQSIDRGEIVNMLE [V44E]	-0.058 ± 0.12
MKMAVISEHLGLSWAELARELQFSVEDINRIRVENPNSLLEQSKALLNLWVIREGQNANMENLYTALQSIDRGEIVNMLE [V44K]	0.327 ± 0.12
MKMAVISEHLGLSWAELARELQFSVEDINRIRVENPNSLLEQSQALLNLWVIREGQNANMENLYTALQSIDRGEIVNMLE [V44Q]	0.18 ± 0.12
MKMAVISEHLGLSWAELARELQFSVEDINRIRVENPNSLLEQSMALLNLWVIREGQNANMENLYTALQSIDRGEIVNMLE [V44M]	0.142 ± 0.084
MKMAVISEHLGLSWAELARELQFSVEDINRIRVENPNSLLEQSAALLNLWVIREGQNANMENLYTALQSIDRGEIVNMLE [V44A]	0.148 ± 0.059
MKMAVISEHLGLSWAELARELQFSVEDINRIRVENPNSLLEQLVALLNLWVIREGQNANMENLYTALQSIDRGEIVNMLE [S43L]	-0.944 ± 0.13
MKMAVISEHLGLSWAELARELQFSVEDINRIRVENPNSLLEQIVALLNLWVIREGQNANMENLYTALQSIDRGEIVNMLE [S43I]	-0.919 ± 0.26
MKMAVISEHLGLSWAELARELQFSVEDINRIRVENPNSLLEQMVALLNLWVIREGQNANMENLYTALQSIDRGEIVNMLE [S43M]	-1.05 ± 0.32
MKMAVISEHLGLSWAELARELQFSVEDINRIRVENPNSLLEQPVALLNLWVIREGQNANMENLYTALQSIDRGEIVNMLE [S43P]	-0.721 ± 0.13
MKMAVISEHLGLSWAELARELQFSVEDINRIRVENPNSLLEQTVALLNLWVIREGQNANMENLYTALQSIDRGEIVNMLE [S43T]	-0.807 ± 0.21
MKMAVISEHLGLSWAELARELQFSVEDINRIRVENPNSLLEQHVALLNLWVIREGQNANMENLYTALQSIDRGEIVNMLE [S43H]	-0.56 ± 0.14
MKMAVISEHLGLSWAELARELQFSVEDINRIRVENPNSLLEQGVALLNLWVIREGQNANMENLYTALQSIDRGEIVNMLE [S43G]	0 ± 0.049
MKMAVISEHLGLSWAELARELQFSVEDINRIRVENPNSLLEQNVALLNLWVIREGQNANMENLYTALQSIDRGEIVNMLE [S43N]	-0.099 ± 0.27
MKMAVISEHLGLSWAELARELQFSVEDINRIRVENPNSLLEQVVALLNLWVIREGQNANMENLYTALQSIDRGEIVNMLE [S43V]	-0.757 ± 0.11
